Assay results taken from patent publication US20240189458A1, “METHODS FOR IN VIVO DELIVERY OF MICROBES TO HUMAN MICROENVIRONMENTS” (priority 2021, published 2024).
Ends that are not written are not given here.

How the values were obtained:
Type in all cases: cell-based
S. Typhimurium PhoPQ [1] = target: T1, S. Typhimurium PhoPQ (Salmonella typhimurium, UniProt P0DM80); test: SLAY-TCS sort-seq screen of KB1 human AMP library; settings: for sort-seq fold activation of PhoPQ relative to no-peptide control: KB1 library, 500 μM IPTG
T1 construct: expressed in transfected cells; host or cells: E. coli BW30007 (lacks E. coli phoPQ) with the cassette integrated in the genome = strain KB1
Description: PhoQ senses diverse human AMPs: To characterize the response of PhoQ to most human AMPs, 133 human AMPs in the Antimicrobial Peptide Database (APD3) were first identified). From this set, 16 (12%) were excluded exceeding 104 amino acids in length due to size restrictions of commercial oligonucleotide synthesis. The remaining set of 117 AMPs vary in charge, length, hydrophobicity, and secondary structure, and comprise 11 clusters of high sequence similarity. These clusters include families of mature AMPs processed from a single precursor peptide (e.g. products of cathelicidin, human defensin 5, and β-amyloid) and peptides with high sequence similarity that are produced from distinct genes (e.g. CXCL1, CXCL2, and CXCL3).
This plasmid library was transformed into KB1. Using Illumina NGS, it was validated that sequences encoding all 117 human AMPs, along with no-peptide controls, are present in the KB1 human AMP library. Variants of human AMPs were also identified that likely resulted from errors in oligo synthesis or plasmid assembly. As expected, these variants generally had lower representation in the library than the human AMPs.
Next, sort-seq was utilized to characterize the effect of each peptide on PhoPQ activity. First, the KB1 human AMP library was grown in the presence of 500 μM IPTG, which induces sufficient expression of positive control AMPs to strongly activate PhoPQ (FIG. 25D). Then, FACS was used to sort these bacteria into eight logarithmically-spaced mNG fluorescence bins (FIG. 26B). The bins were designed to span the fluorescence distributions of negative (no peptide) and positive (C18G) PhoQ activity control strains measured on the same day. […] Next, Illumina NGS was used to sequence the peptide-encoding DNA regions from bacteria in each bin and estimated the mean mNG fluorescence level of each strain using the relative abundances of peptide-encoding sequences across fluorescence bins. These estimated fluorescence values were divided by the estimated mean fluorescence of the no-peptide control to calculate the fold activation of PhoPQ in response to each peptide in the library.

S. Typhimurium PhoPQ [2] = target: T1, S. Typhimurium PhoPQ; test: SLAY-TCS: surface-displayed peptides in KB1, single strains, flow cytometry; settings: KB1, IPTG-induced display
Description: In SLAY, peptides of interest are expressed at the C-terminus of a fusion protein consisting of the Lpp signal peptide, an OmpA transmembrane domain, and a flexible tether. […] In addition to PvirK-mNG, each of these plasmids encodes a SLAY fusion protein under the control of an isopropyl-β-D-thiogalactoside (IPTG)-inducible promoter (Ptac) (FIG. 25). Ptac is tightly repressed, to avoid potential toxicity arising from leaky AMP expression in the absence of inducer. […] Finally, a no-peptide control plasmid encoding a stop codon was constructed instead of a peptide following the OmpA transmembrane domain.

KB1 PhoQ H277A = target: T2, KB1 PhoQ H277A (Salmonella typhimurium, UniProt P0DM80, H277A); test: Negative control strains (S. Typhimurium lacking phoQ; KB1 PhoQ H277A)
T2 construct: expressed in transfected cells; host or cells: E. coli KB1 derivative (BW30007 background)
T2 sequence (P0DM80 1-487 H277A): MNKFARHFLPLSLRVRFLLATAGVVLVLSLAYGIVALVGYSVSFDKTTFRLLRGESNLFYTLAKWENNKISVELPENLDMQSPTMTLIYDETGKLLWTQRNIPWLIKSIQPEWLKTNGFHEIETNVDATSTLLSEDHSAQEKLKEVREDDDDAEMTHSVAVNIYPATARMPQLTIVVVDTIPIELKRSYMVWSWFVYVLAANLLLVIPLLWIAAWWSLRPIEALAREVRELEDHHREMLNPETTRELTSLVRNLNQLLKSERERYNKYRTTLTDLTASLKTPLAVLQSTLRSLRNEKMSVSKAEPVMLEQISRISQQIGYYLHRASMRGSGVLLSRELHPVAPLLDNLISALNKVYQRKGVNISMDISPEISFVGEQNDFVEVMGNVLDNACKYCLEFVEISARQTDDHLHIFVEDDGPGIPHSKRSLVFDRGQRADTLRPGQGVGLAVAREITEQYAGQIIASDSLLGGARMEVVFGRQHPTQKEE
Description: This plasmid was transformed into both S. Typhimurium and KB1 to measure PhoPQ activation by the positive control AMP LL-37. […] LL-37 response was also measured in two negative control strains: an S. Typhimurium strain lacking phoQ and a KB1 derivative in which the catalytic histidine of PhoQ was mutated to an alanine (KB1 PhoQ H277A).

T1 sequence (P0DM80 whole entry): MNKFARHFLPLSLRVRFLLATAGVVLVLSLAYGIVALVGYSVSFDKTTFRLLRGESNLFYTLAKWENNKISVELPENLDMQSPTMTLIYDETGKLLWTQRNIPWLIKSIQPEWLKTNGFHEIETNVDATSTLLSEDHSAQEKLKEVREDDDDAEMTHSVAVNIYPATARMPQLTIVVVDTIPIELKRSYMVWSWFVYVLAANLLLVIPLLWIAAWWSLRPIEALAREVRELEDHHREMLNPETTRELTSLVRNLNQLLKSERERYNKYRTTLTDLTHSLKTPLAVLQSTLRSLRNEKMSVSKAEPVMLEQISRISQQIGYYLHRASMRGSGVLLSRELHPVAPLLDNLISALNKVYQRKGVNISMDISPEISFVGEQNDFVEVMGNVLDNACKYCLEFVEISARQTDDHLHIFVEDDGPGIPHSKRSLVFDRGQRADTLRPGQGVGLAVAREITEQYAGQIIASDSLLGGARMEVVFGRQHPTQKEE

Substance	human AMPs sensed by PhoPQ (S. Typhimurium PhoPQ [1])	sort-seq fold activation of PhoPQ relative to no-peptide control (S. Typhimurium PhoPQ [1])	PhoPQ activation by surface-displayed peptide (S. Typhimurium PhoPQ [2])	further results
NPY: neuropeptide Y	senses			
HNP-1: human defensin, negative control peptide		does not activate mNG expression	do not activate PhoPQ	
LL-37		5.2 fold		LL-37 response in negative control strains (KB1 PhoQ H277A; S. Typhimurium lacking phoQ and KB1 PhoQ H277A): Neither negative control strain responds
CCL20	senses			
protegrin-1: positive control AMP containing disulfide bonds (RGGRLCYCRRRFCVCVGR; disulfide (positions not given here); ends not checked; also: disulfide bonds, pairing not given here; UniProt P32194 131-148, looked up)			activates PhoPQ	PhoPQ activation by surface-displayed AMPs in PhoQ H277A strain (KB1 PhoQ H277A; KB1 PhoQ H277A): slight increase in mNG fluorescence
hBD3: human β-defensin 3 (GIINTLQKYYCRVRGGRCAVLSCLPKEEQIGKCSTRGRKCCRRKK; ends and bridges not checked; cysteine pairing not given here; UniProt P81534 23-67, looked up)	senses			
